In patent publication US11103459B2, “Method of drug formulation based on increasing the affinity of active agents for crystalline microparticle surfaces” (MannKind Corporation, priority 2005, dated 2021):
Read-outs that look alike come from different tables or passages of the source. Where no end group is shown, it is not given here.

Tests used:
[1] = Active agent/FDKP microparticle adsorption studies (loading curves, HPLC); format: physicochemical; settings: for binding of GLP-1 onto the FDKP microparticle surface: 100 mM TMAO
Protocol: Aqueous samples at varying pH and at 20° C. (unless otherwise noted) were analyzed.
The association of active agent with diketopiperazine (DKP) particles in suspension was evaluated by conducting adsorption studies.
(§1) Unbound active agent in the supernatant was filtered off the suspension. […] The amount of active agent in both the supernatant and reconstituted fractions was quantitated by HPLC. A series of experiments were conducted in which conditions employed included use of additives such as salts, osmolytes, chaotropes and kosmotropes, and alcohols.
The concentration of the chaotrope or kosmotrope in the samples was held constant at 100 mM and the pH varied from 2.0 to 5.0. Chaotropes or kosmotropes were selected from the following: NaSCN, CsCl, Na2SO4, (CH3)3N—HCl, […], Na Citrate, and NaClO4. The control indicates no chaotrope or kosmotrope were added.
The concentration of the osmolyte (stabilizer) in the samples was held constant at 100 mM and the pH varied from about 2.0 to about 5.0. The osmolytes were selected from hexylene-glycol (Hex-Gly), trehalose, glycine, PEG, TMAO, mannitol and proline; the control indicates no osmolyte.
In assessing the effect of modifiers on the active agent that allows for adsorption to the microparticle surface by a hydrophobic mechanism, the effect of alcohols were examined. […] The effect of each alcohol was observed over a pH range of 2.0 to 5.0. The alcohols used were trifluoroethanol (TFE) and hexafluoroisopropanol (HFIP). Each alcohol was evaluated at varying concentrations which include 5%, 10%, 15%, or 20% v/v.
(§2) The amount of active agent detected in reconstituted microparticle-free control samples as a function of pH and NaCl concentration was assessed. The pH was controlled with a 20 mM potassium phosphate/20 mM potassium acetate mixture.

[2] = Active agent detected in reconstituted microparticle-free control samples (precipitation, HPLC); format: physicochemical
Protocol: as §1
Similar observations were disclosed in U.S. Provisional Application Ser. No. 60/744,882.
The effect of TFE was less pronounced, and at the lower pHs tested was detrimental. […] The mass ratios in FIGS. 3C-D reflect both adsorbed and precipitated active agent although precipitation is an increasingly minor component as the pH decreased toward 3.0.
as §2

[3] = in the presence of NaSCN, NaClO4, Na2SO4, NaNO3 and Na citrate; cited from earlier work

ghrelin (GSSFLSPEHQRVQQRKESKKPPAKLQPR; ends and bridges not checked; UniProt Q9UBU3 24-51, looked up)
affinity of ghrelin for the microparticle surface vs control ([1]; 100 mM mannitol, PEG, glycine, Hex-Gly, trehalose, pH about 4.0 to 5.0): greater affinity
affinity of ghrelin for the microparticle surface (mass ratio of ghrelin to FDKP particles) ([1]; HFIP and TFE at 5%, 10%, 15%, 20% v/v, pH 2.0-4.0): greatly improved affinity

glucagon-like peptide 1 [GLP-1]
GLP-1 peptide detected in reconstituted microparticle-free control samples ([2]; 10% HFIP and TFE, pH 4.0): 0.13 to 0.19 mg/mL
GLP-1 peptide detected in reconstituted microparticle-free control samples ([2]; 10% HFIP or TFE, pH 2.0): no GLP-1 was detected
affinity for adsorption of GLP-1 onto FDKP particle surface ([1]; 100 mM PEG and proline, pH 2.0 to 4.0): improved the affinity
binding of GLP-1 onto the FDKP microparticle surface ([1]; pH 2.0): more effective than PEG or proline
binding of GLP-1 onto the FDKP microparticle surface ([1]; pH 3.0 and above): modestly detrimental
affinity of GLP-1 for the FDKP microparticles ([1]; 100 mM chaotropes and kosmotropes, pH 2.0-4.0, greater effect at lower pH): improved affinity
affinity of GLP-1 for the microparticle surface ([1]; HFIP and TFE at 5% and 10%, pH 2.0-5.0): improved affinity
binding of GLP-1 to FDKP particles ([1]; NaCl, pH 4.0 and above): reduction in binding
effect of TFE on GLP-1 affinity for the microparticle surface ([1]; TFE, lower pHs tested): detrimental
binding (adsorption) of GLP-1 to FDKP particles ([1]; all NaCl concentrations tested, pH about 2.0 to about 3.5): enhanced binding
GLP-1 peptide detected in reconstituted microparticle-free control samples [3]: 0.02 to 0.04 mg/mL

parathyroid hormone [PTH]
binding of PTH to the FDKP particles ([1]; 250 to 1000 mM NaCl, pH about 2.0 to about 3.5): enhanced binding
binding of PTH to the microparticle ([1]; in the presence of salt, pH about 3.5 to about 5.0): decreased
affinity of PTH for the FDKP microparticle surface ([1]; strong chaotropes NaSCN and NaClO4, pH 4.0 to about 4.5): greater

insulin [reference compound]
affinity of insulin for the FDKP microparticle surface vs control ([1]; 100 mM chaotropes and kosmotropes, pH 3.0, […] insulin, 5 mg/mL FDKP): improved the affinity
affinity of insulin for the FDKP microparticle surface vs control ([1]; 100 mM chaotropes and kosmotropes, pH 4): this effect was not observed
adsorption of insulin to the FDKP microparticle surface vs control ([1]; 100 mM chaotropes and kosmotropes, pH 5.0 (insulin precipitated)): interfered with the adsorption
affinity of insulin for the FDKP particle surface ([1]; 100 mM osmolytes (PEG, glycine, trehalose, mannitol, Hex-Gly), pH 3.0 to 5.0): significantly improved affinity
binding (adsorption) of insulin onto FDKP particles ([1]; 100-500 mM NaCl, pH about 2.5 to about 3.5): increased binding
adsorption of insulin to the FDKP particle ([1]; all NaCl concentrations tested, pH about 4.0 to about 5.0): reduction in the adsorption
